From EP4578463A1, “ENDO-180 TARGETED ANTIBODY-DRUG CONJUGATES” (Oncomatryx Biopharma, S.L., priority 2023, dated 2025)
Positions count from the first letter of the chain named. Names may count otherwise.

Legend:
Test in all cases: ELISA, 10 nM IgG on immobilized variant (3 µg/ml)
[1] = target: T1, human Endo180-moFc DI-DIV variant region 1 (N233E, D234G, T237S, Q243P, D246S) (human, UniProt Q9UBG0 31-513)
T1 construct: Domain III residues swapped to those of MRC1; not shown: murine Fc
T1 chain: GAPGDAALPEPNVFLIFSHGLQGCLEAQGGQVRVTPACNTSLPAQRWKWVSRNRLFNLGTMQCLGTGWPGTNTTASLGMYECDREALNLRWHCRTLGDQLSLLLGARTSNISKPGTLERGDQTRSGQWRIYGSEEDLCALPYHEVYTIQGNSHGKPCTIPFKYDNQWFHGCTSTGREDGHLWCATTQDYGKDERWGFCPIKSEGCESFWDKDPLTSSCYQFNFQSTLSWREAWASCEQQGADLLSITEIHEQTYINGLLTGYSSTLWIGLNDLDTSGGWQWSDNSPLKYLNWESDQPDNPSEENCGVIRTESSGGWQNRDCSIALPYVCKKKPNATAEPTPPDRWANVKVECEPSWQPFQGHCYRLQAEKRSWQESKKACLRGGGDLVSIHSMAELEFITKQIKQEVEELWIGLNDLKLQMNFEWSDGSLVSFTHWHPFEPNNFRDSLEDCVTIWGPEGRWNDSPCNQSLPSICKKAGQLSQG

[2] = target: T2, human Endo180-moFc DI-DIV variant region 2 (Q254K, T256A, S258T, E261Q) (human, UniProt Q9UBG0 31-513)
T2 construct: not shown: murine Fc
T2 chain: T1 chain with E203N, G204D, S207T, P213Q, S216D, Q224K, T226A, S228T, E231Q

[3] = target: T3, human Endo180-moFc DI-DIV variant region 4 (D304S, T305F, S306N) (human, UniProt Q9UBG0 31-513)
T3 construct: not shown: murine Fc
T3 chain: T1 chain with E203N, G204D, S207T, P213Q, S216D, D274S, T275F, S276N

- binding result [1]: binds
- binding result [2]: binds
- binding result [3]: binds
B1: Human IgG1 G7V with a wildtype γ1 heavy chain (antibody, V domains shown)
VH: EVQLVESGGGLVKPGGSLRLSCAASGFTFSSYSMNWVRQAPGKGLEWVANIKPDGSERHSVDSVKGRFTISRDNSKNSLYLQMNSLRAEDTAVYYCARPGAGRLDYWGQGTLVTVSS
VL: SSELTQDPAVSVALGQTVRITCQGDSLRSYYASWYQQKPGQAPVLVVYGKNNRPSGIPDRFSGSSSGNTASLTITGAQAEDEADYYCNSRDSSGNPWAFGGGTKVTVLG
notes: Naked antibody, made in HEK293-6E (lab scale) or CHO (1 L scale); also called IgG G7V; OMTX007-G7V
